For one substance, stoichiometry N results are on record in article doi:10.1101/2021.07.02.450934.

In general, stoichiometry N refers to the number of molecules, sites or subunits per partner or assembly.

The target in the experiment is wild-type Pseudomonas testosteroni ketosteroid isomerase (KSI) (Pseudomonas testosteroni). Nature of the experiment: SEC.

“wild-type Pseudomonas testosteroni ketosteroid isomerase (KSI) (enzyme)” came in with a stoichiometry N of 2.
